Reference: patent US20100087368A1

How the values were obtained:
rat Protein C (rat) = rat Protein C (rat) (UniProt P31394); test: cell-based or functional assay
[1] = target: T1, human soluble thrombomodulin (human sTM)
T1 chain: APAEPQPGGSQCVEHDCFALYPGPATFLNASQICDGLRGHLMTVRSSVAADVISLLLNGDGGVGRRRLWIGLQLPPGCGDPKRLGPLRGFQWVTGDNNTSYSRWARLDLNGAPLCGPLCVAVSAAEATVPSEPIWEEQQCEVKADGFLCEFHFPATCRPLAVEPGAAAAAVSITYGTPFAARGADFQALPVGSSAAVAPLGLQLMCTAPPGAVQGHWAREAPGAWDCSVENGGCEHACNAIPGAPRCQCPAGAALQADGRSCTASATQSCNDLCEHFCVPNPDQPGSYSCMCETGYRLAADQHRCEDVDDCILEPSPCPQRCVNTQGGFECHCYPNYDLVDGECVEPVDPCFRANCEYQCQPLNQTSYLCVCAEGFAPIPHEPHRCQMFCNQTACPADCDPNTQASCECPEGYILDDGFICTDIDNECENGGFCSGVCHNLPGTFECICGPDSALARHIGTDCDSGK

[2] = target: T2, rat soluble thrombomodulin (rat sTM)
T2 chain: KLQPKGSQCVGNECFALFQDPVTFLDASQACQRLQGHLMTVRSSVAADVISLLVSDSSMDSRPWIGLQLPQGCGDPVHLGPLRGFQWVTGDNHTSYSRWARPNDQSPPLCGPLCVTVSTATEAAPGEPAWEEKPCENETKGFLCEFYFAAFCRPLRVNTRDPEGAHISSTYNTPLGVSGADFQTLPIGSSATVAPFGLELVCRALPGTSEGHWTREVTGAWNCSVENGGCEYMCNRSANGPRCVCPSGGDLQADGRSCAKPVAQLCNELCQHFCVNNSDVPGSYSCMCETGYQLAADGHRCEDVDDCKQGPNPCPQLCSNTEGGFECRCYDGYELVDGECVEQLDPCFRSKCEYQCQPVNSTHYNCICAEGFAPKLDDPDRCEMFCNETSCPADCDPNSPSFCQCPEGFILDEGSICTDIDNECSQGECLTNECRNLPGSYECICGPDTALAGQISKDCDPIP

human sTM variant F376L = target: T3, human sTM variant F376L
T3 chain: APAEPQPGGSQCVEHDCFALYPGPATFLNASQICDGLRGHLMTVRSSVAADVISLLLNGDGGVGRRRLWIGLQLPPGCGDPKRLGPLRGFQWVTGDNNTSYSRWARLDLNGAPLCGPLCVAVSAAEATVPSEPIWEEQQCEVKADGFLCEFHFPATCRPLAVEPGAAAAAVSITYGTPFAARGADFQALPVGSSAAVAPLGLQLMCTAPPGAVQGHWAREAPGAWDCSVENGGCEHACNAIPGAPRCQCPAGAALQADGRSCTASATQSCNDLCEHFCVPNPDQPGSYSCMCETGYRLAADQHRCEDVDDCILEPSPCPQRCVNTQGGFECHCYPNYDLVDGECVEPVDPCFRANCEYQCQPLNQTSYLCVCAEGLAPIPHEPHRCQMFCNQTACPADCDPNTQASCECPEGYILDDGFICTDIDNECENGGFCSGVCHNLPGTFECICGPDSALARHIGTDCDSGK

## endogenous human thrombomodulin on human aortic endothelial cells (from UniProt P07204 19-575)
Rat Protein C (rat)
  percent PC activation in the presence of human thrombin, against human thrombin with human Protein C as 100% (human aortic endothelial cells, chromogenic substrate): 12.8%

## endogenous human thrombomodulin on human aortic endothelial cells (from UniProt P07204 19-575) (receptor)
Rat Protein C (rat)
  percent PC activation in the presence of rat thrombin, against human thrombin with human Protein C as 100% (human aortic endothelial cells, chromogenic substrate): 0%

B1: rat Protein C (protein)
chain: ANSFLEEVRAGSLERECMEEICDFEEAQEIFQNVEDTLAFWIKYFDGDQCSTPPLDHQCDSPCCGHGTCIDGLGGFSCSCDKGWEGRFCQQEMGFQDCRVKNGGCYHYCLEETRGRRCRCAPGYELADDHMHCRPTVNFPCGKLWKRTDKKRKNFKRDIDPEDEELELGPRIVNGTLTKQGDSPWQAILLDSKKKLACGGVLIHTSWVLTAAHCLESSKKLTVRLGEYDLRRRDPWELDLDIKEVLVHPNYTRSNSDNDIALLRLSQPATLSKTIVPICLPNSGLAQELSQAGQETVVTGWGYQSDKVKDGRRNRTFILTFIRIPLAARNDCMQVMNNVVSENMLCAGIIGDTRDACDGDSGGPMVVFFRGTWFLVGLVSWGEGCGHLNNYGVYTKVGSYLKWIHSYIGERDVSLKSPKL
[1]
  Vmax(mOD405/min) of rat Protein C activation in the presence of rat thrombin (chromogenic substrate S2366): 3.1 mOD405/min
[2]
  Vmax(mOD405/min) of rat Protein C activation in the presence of rat thrombin (chromogenic substrate S2366): 47.1 mOD405/min
Human sTM variant F376L
  Vmax(mOD405/min) of rat Protein C activation in the presence of rat thrombin (chromogenic substrate S2366): TLD
